Data taken from article PMC4705658.

T1: Gbp2 RRM3 (Saccharomyces cerevisiae, UniProt P25555 330-427)
T1 sequence: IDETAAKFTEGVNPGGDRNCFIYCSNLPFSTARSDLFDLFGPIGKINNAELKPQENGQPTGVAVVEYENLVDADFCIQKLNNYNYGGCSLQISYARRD

T2: Gbp2 RRM2 (Saccharomyces cerevisiae, UniProt P25555 219-316)
T2 sequence: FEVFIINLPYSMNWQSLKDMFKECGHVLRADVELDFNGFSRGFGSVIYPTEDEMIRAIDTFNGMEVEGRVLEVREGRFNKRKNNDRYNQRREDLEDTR

T3: Gbp2 RRM12 (Saccharomyces cerevisiae, UniProt P25555 122-316)
T3 sequence: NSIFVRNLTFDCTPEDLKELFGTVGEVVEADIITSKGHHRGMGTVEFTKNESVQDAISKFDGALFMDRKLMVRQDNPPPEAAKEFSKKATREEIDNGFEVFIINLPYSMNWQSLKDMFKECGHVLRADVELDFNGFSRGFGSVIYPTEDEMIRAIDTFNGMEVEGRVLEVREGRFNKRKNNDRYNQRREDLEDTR

T4: Gbp2 RRM123 (Saccharomyces cerevisiae, UniProt P25555 122-427)
T4 sequence: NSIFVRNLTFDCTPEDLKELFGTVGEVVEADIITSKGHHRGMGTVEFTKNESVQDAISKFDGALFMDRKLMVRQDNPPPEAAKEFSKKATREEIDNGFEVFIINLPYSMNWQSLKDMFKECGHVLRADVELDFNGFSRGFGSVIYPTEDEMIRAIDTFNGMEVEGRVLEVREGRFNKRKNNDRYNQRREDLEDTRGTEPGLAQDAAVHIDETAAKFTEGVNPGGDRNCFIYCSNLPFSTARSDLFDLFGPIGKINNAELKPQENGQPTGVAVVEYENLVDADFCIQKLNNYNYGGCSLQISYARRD

T5: Hrb1 RRM2 (Saccharomyces cerevisiae, UniProt P38922 261-338)
T5 sequence: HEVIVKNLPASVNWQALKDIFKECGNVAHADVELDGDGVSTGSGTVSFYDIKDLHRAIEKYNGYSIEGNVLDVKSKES

B1: A12 (ssRNA)
RNA: AAAAAAAAAAAA
B2: d(TTGGTGTT) (ssDNA)
DNA: TTGGTGTT
B3: U12 (ssRNA)
RNA: UUUUUUUUUUUU
B4: Selex RNA UUGGUGUU (ssRNA)
RNA: UUGGUGUU
B5: TG-43 (ssDNA)
DNA: GTGGTGGGTGGGTGTGTGTGGGTGTGGTGGGTGTGTGGGTGTG

Key:
Gbp2 RRM3 [1] = target: T1, Gbp2 RRM3; assay: NMR HSQC titration
Gbp2 RRM2 = target: T2, Gbp2 RRM2; assay: fluorescence anisotropy
Gbp2 RRM12 = target: T3, Gbp2 RRM12; assay: fluorescence anisotropy
Gbp2 RRM123 = target: T4, Gbp2 RRM123; assay: fluorescence anisotropy
Gbp2 RRM3 [2] = target: T1, Gbp2 RRM3; assay: fluorescence anisotropy
Hrb1 RRM2 = target: T5, Hrb1 RRM2; assay: fluorescence EMSA

| Binder | binding result (Gbp2 RRM3 [1]) | Kd (Gbp2 RRM2) [µM] | Kd (Gbp2 RRM12) [µM] | Kd (Gbp2 RRM123) [µM] | binding result (Gbp2 RRM3 [2]) | binding result (Hrb1 RRM2) |
| --- | --- | --- | --- | --- | --- | --- |
| B1 | no binding | – | – | – | – | – |
| B2 | – | 310 ± 90 | 24 ± 2 | 17 ± 2 | no binding | – |
| B3 | no binding | – | – | – | – | – |
| B4 | – | 54 ± 4 | 5.5 ± 0.7 | 3.3 ± 0.8 | no binding | – |
| B5 | – | – | – | ~0.059 | – | no binding |
